Test: yeast display, Sf9 membrane polyspecificity reagent, FACS + sequencing; frameworks hold sequencing errors
In short: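 Sorting gates, low and high (top ~1%), were placed on anti-HA fluorescence to track expression and on streptavidin fluorescence to track reagent binding. A clone's polyreactivity label is taken from the gate it came out of. The reagent was 10% biotinylated, detergent-solubilized Sf9 membrane, applied for 1 hour at 4 °C to galactose-induced yeast display cells.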

Sequence | polyreactivity (PSR sort gate)
QVQLVESGGGLVQAGGSLRLSCAASGRIFWDNAMGWYRQAPGKERELVAAIDYRGGNTNYADSVKGRFTISRDNAKNTVYFQMNSLKPEDTAVYYCNAEWAVRYPGYDYWGQGSQVTVSS | low polyreactivity
QVQLVESGGGLVQAGGSLRLICAASGFIFTTYAMGWYRQAPGKEREVVAAISSSGTTYYADSVKGRFTISRDNAKNTVYLQMNSLKPEDTAVYYCAARRQFRSYQQRLYYWGQGTQVTVSS | low polyreactivity
QVQLVESGGGLVQAGCSLRLSCAASGSIFSQSAMGWYRQAPGKERELVAAISARGTSTYYADSVKGRFTISRDNAKNTVYLQMNSLKPEDTAVYYCNTVRPYSSSSSRYYYWGQGTQVTVSS | high polyreactivity
QVQLVESGGGLVQAGGSLRLSCAASGFTFYAYAMGWYRQAPGKERELVAAITWDDDSTSYADSVKGRFTISRDNAKNTVYLQMNSLKPEDTAVYYCAADSIRHRRYKYDYWGQGTQVTVSS | low polyreactivity
QDQLVESGGGLVHAGGSLRLSCAASGNNFSSYVMGWYRQATGKERELVAAISSRGGSTYYADSVKGRFTISRDNSKNTVYLQMNCLKPEDTAVYYCAARYLSCYDWGQGTQVSVSS | high polyreactivity
QVQLVESGGGLVQAGGSLRISCAASGRTFGINAMGWYRQAPGKERELVAAISSSGSTYYADSVKGRFTISRDNAKNTVYLQMNSLKPEDTAVYYCAAVAKQWGNTYYYWGQGTQVTVSS | high polyreactivity
QVQLVESGGGLVQAGGSLRLSCAASGRILAIYAKGWYRQAPGKERELVAGITYSAGSTYYADSVKGRFTISRDNAKNTVYLQMNSLKPEDTAVYYCAALEYNSHRYGYDYWGQGTQVTVSS | low polyreactivity
QVQLVESGGGLVQAGGSLRLSCAASGRTFPVYAMGWYRQAPGKERELVAAIRGRSVRTYYADSVNGRFTISRDNAKNTVYLQMNSLKPEDTAVYYCAAYYFNPGMDYWGQGTQVTVSS | high polyreactivity
QVQLVESGGGLVQAGGSLRISCAASGRTFSSYAMGWYRQAPGKERELVARISSSGGRTSYADSVKGRFTISRDNAKNTVYLQMNSLKPEDTAVYYCATEWSDRNDYWGQGTQVTVSS | high polyreactivity
QVPLVESGGGLVQAGGSLRLSCAASGSTLGRYAMGWYRQAPGKERELVASITWSDDSTYYADSEKGRFTISRDNAKNTVYLQMNSLKPEDTAVYYCAAAGNLYTYRFYYWGQGTQVTLSS | low polyreactivity
QVQLVESGGGLVQAGGSLRLSCAASGSIFYSNAMGWYRQAPGKEREFVAAISAGGGSTYYADSVKGRFTISRDNAKNPVYLQMNSLKPEDTAVYYCAAQQYKIIYPYDYWGQGTQVTVSS | low polyreactivity
QVQLVESGGGLVQAGGSLRLSCAASGSTFPGYAMGWYRQAPGKERELVASIYTGGSTYYADSVKGRFTISRDNAKKTVYLQMHSLKPEDSAVYYCAADSYNVSSLMYYWGQGTQVTVSS | low polyreactivity
QVQLVESGGGLVQAGGSLRLSWAAYGRIFLTNAMGWYRQAPGKERELVAAITSGGSTYYADSVKGRFTISRDNAKNTVYLQMNSLKPEDTAVYYCKADTDRYWPYEYDYWGQGTQVTVSS | low polyreactivity
QVQIVESGGVLVQAGGSLRLRCAASGSTFNRYAMGWYRQAPGKERELVASITTSDSTNYADSVKGRFTISRDNAQNTVYLQMNRLKPEDTALYYCNAEVRGVWYTYDYWGQGTQVTVSS | low polyreactivity
QVQLVESGGGLVQAGGSLRLSCAASGSIFAGNAMGWYRQSPGKERELVAAITWRSGRTYYADSVKGRFTISRDNAKNTVYLEMNSLKPEDTAVYYCARGRYGYTAPFRRWYFRYDYWGQGTQVTVSS | high polyreactivity
QVQLVESGGGLVQAGGRLRLSCAASGRIFRYNAMGWYRQAPGKERELVASITSAGSTNYADSVKGRFTISRDNAKITVYLLMNSLKPEDTEVYYCNKRRAYGYYLFDYWGQGTQVTVSS | high polyreactivity

Sequence | polyreactivity (PSR sort gate)
QVQLVESGGGLVQAGGSLRLSCAASGRIFKSYAMGWYRQSPGKERELVAIIRSSGTTYYADSVKGRFTISRDNAKNTVYLQMNSLKPEDTAVYYCAADPYYWRQFNYDYWGQGTQVTVSS | high polyreactivity
QVQLVESGGGLVQAGGSLRLTSADSGRTFYKYAMGWYIQAPGKERELVAANSQSGGSTYYADSVNGRFTISRDNAKNTVYLQMNSLKPEDTAVYYCAARRLPRKERKLYYWGQGSQVTVSS | high polyreactivity
QVQLVESGGGLVQAGGSLRLSCAASGIIFYYYAMGWYRQPPGKERELVAAISWSGDGTYYADSVKGRFTISRDNPKNTVYLQMNSLKPEDTAVYYCAALNDGFSGYDYLDEYTDYGYWGQGTQVTVSS | low polyreactivity
QVQLVESGGGLVQAGGSLRLSCAAPGSTFYLYAMGWYRQAPGKERELVAAISSGGRTNYADSVKGRFTISRDNAKNTVYLQMNSLKPEDTAVYYCAARIQCPTWSLYYYWGQGTQVTVSS | high polyreactivity
QVQLVESGGGLVQAGGSLRLSCAASGRTFVANTMGWYRQAPGKEREFVAGISRRGGSTYYADSVKGRYTISRDNAKNTVYLQMNSLKPEDPAVYYCAVGTWARYRGLEYDYWGQGTQVTVSS | high polyreactivity
QVQLVESGGGLVQAGGSLRLSCAASGRIFPVNDMGWYRQAPGKERELVASITYSGGSTYYADSVKGRFTISRDNAKNTVYLQMNSLKPEDTAVYYCAADDGSQYYFDSPHEYDYWGQGTQVTVSS | low polyreactivity
QVQLVESGGGLVQAGGSLRISCAASGSIFPHYAMGWYRQSPAKERELVAAISYSGGRTYYADSVKGRFTISRDNAKNTFYLQMNSLKPEDTAVYYCAKTERVLYHGDYWGQGTQVTVSS | low polyreactivity
QVQLVESGGGLVQAGGSVRLSCAASGFISPSYAMGWYRQAPGKERELVAAITTSGGSTYYADSVKGRFTISRDNAKNTVYLQMNSLIPEDTAVYYCAAVGPDNSLYEPMDYWGQGTQVTVSS | low polyreactivity
QVQLVESGGGLVQAGGSLRLSCAASGSTFFGNTMGWYRQAPGKERELVAAISRRGGSTYYADSVKGRFTISRDNAKNTVYLQMTSLIPEDTAVYYCAKYYQSGGYTPGKYDYWGQGTQVTVSS | high polyreactivity
QVQLEESGGGLVQAGGSLRLSCAASGRTFTSNPMGLYRKAPGKERELVAAISNSGSSTYYADSVKGRFTISRDNAKNTVYLQMNSLKAEDTAVYYCAAYHYRQNTLYYYWGQGTQVTVSS | high polyreactivity
QVQLVESGGGLVQAGGRLRLSCAASGYIFKSYVMGWYRQAPGKERELVAAITWSGGSTYYADSVKGRFTISRDNAKNTVYLQMNSLKPEDTAVYYCAAYPRRYRTTYDYWGQGTQVTVSS | high polyreactivity
QVQLVESGGGLVQAGGILRLSCAASGSIFGGYGMGWYRQAPGKERELVAAITSVSSTYYADSVKGRFTISRDNAMNTVYVQMNSLKPEDTAVYYCAARPYPHSAYEGDYWGRGTQVTVSS | low polyreactivity
QVQLVESGGGLVQAGGSLRLSCAASGSIFIRNAMGWYRQAPGKERELVAAISWGGARTYYADSVKWRFTISRDNAKNTVYLQMNSLKPEDTAVYYCNALNVRGNKFDYWGQGTQVSVSS | high polyreactivity
QVLLQESGGLLQAGCSLRMSCAASGSISTALSMVWYRQAPGKERELVATISDGASTNYADSVKGRFTISRVNAKNTVYLQMNSLKPEDTEVYYCAAQSQYRPDHRYWGQGTQVTVSS | high polyreactivity
QVQLVESGGGLVQAGGSLRLSCAASGLTFYYYAMGWYRQAPGKERELVASINRSSGSTYYADSVKGRFTISRDNAKNTVYLQMNSLKPEDTAVYYCAVKKHWPHPAYTRYYKYYYWGQGTQVTVSS | high polyreactivity
QVQLVESGGGLVQAGGSLRLSCAASGSTFWVYTMGWYRQAPGKERELVAAITLNGGSTYYADSVKGRFTISRDNAKNTVYLQMNSLKPEDTAVYYCAAYVFPFDKSYHYVGYDYWGQGTQVTVSS | low polyreactivity

— the nanobody polyreactivity screen of Harvey et al. (2022)
